The record followed here is paper PMC11066524, “The molecular determinants of classical pathway complement inhibition by OspEF-related proteins of Borrelia burgdorferi” (The Journal of Biological Chemistry, 2024).

Settings in all cases: both partners purified
Experiment [1] deals with T1, full-length activated human C1s (human, UniProt P09871 16-437; P09871 438-688).
T1 construct: also called active C1s
T1 sequence 1: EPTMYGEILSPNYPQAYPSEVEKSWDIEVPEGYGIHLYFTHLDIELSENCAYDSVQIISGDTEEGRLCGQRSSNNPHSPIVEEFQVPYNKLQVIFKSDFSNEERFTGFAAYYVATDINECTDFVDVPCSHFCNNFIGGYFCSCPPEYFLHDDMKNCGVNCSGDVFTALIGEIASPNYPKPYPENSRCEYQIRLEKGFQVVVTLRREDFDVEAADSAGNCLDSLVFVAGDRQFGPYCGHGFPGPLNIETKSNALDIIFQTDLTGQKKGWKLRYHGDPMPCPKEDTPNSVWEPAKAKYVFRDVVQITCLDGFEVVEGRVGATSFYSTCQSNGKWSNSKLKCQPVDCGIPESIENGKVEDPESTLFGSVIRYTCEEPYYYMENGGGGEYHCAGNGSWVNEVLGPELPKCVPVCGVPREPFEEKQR
T1 sequence 2: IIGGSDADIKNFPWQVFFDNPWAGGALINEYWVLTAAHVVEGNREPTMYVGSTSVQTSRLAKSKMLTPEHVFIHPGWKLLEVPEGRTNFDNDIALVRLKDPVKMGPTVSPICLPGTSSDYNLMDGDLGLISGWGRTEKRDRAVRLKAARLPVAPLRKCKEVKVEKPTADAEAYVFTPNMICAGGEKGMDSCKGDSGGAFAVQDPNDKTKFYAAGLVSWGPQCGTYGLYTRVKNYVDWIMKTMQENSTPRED
Put plainly: SPR; steady-state fit (K_(D, ss)), 1:1 model, of the same injection series as a2; ElpQ proteins amine-coupled to a CMD200 chip; activated C1s or C1r 0-200 nM; HBS-T Ca2+ (10 mM Hepes pH 7.3, 140 mM NaCl, 0.005% Tween-20, 5 mM CaCl2).

The target in experiment [2] is T2, activated full-length human C1r (human, UniProt P00736 18-705).
T2 construct: as far as I recall it is cleaved at Arg463-Ile464 of P00736 and lacks the signal peptide (1-17); also called active C1r
T2 sequence: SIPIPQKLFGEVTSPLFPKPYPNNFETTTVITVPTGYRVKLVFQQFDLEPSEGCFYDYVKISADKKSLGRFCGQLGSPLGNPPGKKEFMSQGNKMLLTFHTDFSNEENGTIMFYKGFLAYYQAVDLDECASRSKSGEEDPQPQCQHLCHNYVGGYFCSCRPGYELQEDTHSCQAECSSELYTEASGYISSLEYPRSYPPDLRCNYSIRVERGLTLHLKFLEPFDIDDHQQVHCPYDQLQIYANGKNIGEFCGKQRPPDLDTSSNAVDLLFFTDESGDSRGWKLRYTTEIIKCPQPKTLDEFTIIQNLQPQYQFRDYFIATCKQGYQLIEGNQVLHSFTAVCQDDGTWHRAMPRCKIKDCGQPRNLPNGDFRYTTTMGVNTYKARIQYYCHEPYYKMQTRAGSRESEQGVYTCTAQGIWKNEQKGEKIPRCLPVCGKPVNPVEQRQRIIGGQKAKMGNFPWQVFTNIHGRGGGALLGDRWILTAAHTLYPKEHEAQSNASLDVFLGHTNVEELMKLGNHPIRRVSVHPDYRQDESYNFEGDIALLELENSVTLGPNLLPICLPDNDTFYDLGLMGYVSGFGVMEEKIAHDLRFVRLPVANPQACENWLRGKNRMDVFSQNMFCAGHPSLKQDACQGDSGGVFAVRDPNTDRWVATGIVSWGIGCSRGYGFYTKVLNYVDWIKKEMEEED
Put plainly: SPR; kinetic fit (K_(D, kin)), 1:1 Langmuir; ElpQ/ElpB proteins amine-coupled to a CMD200 chip; activated C1s or C1r injected 0-200 nM, multicycle; HBS-T Ca2+ (10 mM Hepes pH 7.3, 140 mM NaCl, 0.005% Tween-20, 5 mM CaCl2); 30 μl/min; association 120 s (C1r 480 s), dissociation 180 s. (In general: SPR reads the build-up and loss of mass on a sensor chip optically.)

Experiment [3] deals with T1, full-length activated human C1s. The experiment is described as above.
In experiment [4] the target is T2, activated full-length human C1r. Put plainly: SPR; steady-state fit (K_(D, ss)), 1:1 model, of the same injection series as a2; ElpQ proteins amine-coupled to a CMD200 chip; activated C1s or C1r 0-200 nM; HBS-T Ca2+ (10 mM Hepes pH 7.3, 140 mM NaCl, 0.005% Tween-20, 5 mM CaCl2).
Experiment [5] concerns the target T1, full-length activated human C1s. The experiment in a line: HDX-MS; ElpQ_(19-343) alone or with a 3-fold molar excess of full-length activated C1s, on ice ~20 min before analysis; exchange 0 s to 2 h at 20 °C in D2O buffer (25 mM phosphate pD 7.5, 0.1 M NaCl); triplicate.

B1: ElpQA4 (domain or fragment, Borrelia burgdorferi strain B31, UniProt Q9S035 181-343, looked up)
chain: REEAEQQKRQQEEEEKRQVDNQIKTLIAKIDEINENIDVIKWQTTVGPQGVIDRITGPVYDDFTNGNNSIRATWEGLAAESADEGLGKLLKELSDARDALRTKLNEGNKPYTGYEEPKLKESVNVSEIKEDLEKLKSKLEEVKKYLKDSSKFEEIKGYISDSQ
notes: Synthetic E. coli codon-optimised gene fragment cloned BamHI/NotI into pT7HMT
The term Kd denotes the free concentration of one partner at which half of the binding sites on the other are occupied at equilibrium, for simple one-to-one binding. Higher therefore signals weaker binding. One may read the koff as the first-order rate constant of dissociation. A lower koff goes with a long-lived complex. In general, kon refers to a measure of how fast the partners come together. The low end stands for slower complex formation, the high end for faster complex formation. With B1, the Kd in experiment [1] was about 464 nM. Moreover, in experiment [2], the koff turned out to be 0.493 s⁻¹ and the kon came to 2440 M⁻¹ s⁻¹. Further, in experiment [3], the affinity, expressed as Kd, was 173 nM; the koff was determined as 0.0103 s⁻¹; the kon worked out at 60100 M⁻¹ s⁻¹.

B2: ElpQ_(181-343) (domain or fragment)
chain: REEAEQQKRQQEEEEKRQVDNQIKTLIAKIDEINENIDVIKWQTTVGPQGVIDRITGPVYDDFTNGNNSIRETWEGLEEESEDEGLGKLLKELSDARDALRTKLNEGNKPYTGYEEPKLKESVNVSEIKEDLEKLKSKLEEVKKYLKDSSKFEEIKGYISDSQ
notes: pT7HMT adds, as far as I recall, an N-terminal His-Myc tag with a TEV site that is usually cleaved; also called C-terminal truncation construct of ElpQ
Consider B2, for which the Kd in experiment [4] amounted to 221 nM; in experiment [1] it was 39.3 nM; in experiment [2], 151 nM; in experiment [3], 14.5 nM. Besides, the values for the koff in experiment [2] and in experiment [3] were 0.00316 s⁻¹ and 0.00683 s⁻¹, respectively. The kon in experiment [2] is 21700 M⁻¹ s⁻¹; in experiment [3] it was 477000 M⁻¹ s⁻¹.

B3: full-length ElpQ (ElpQ_(19-343)) (natural protein)
chain: KNFATGKDIKQNSEGKIKGFVNKILDPVKDKIASSGTKVDEVAKKLQEEEKEELMQGDDPNGSGINPPPVLPENIHNNALVLKAIEQSDGQQEKKVEEAEAKVEENKEKQENTEENIKEKEIIDEQNKQELAKAKEEEQQKEQKRHQEEQQRKAKAEKEKREREEAEQQKRQQEEEEKRQVDNQIKTLIAKIDEINENIDVIKWQTTVGPQGVIDRITGPVYDDFTNGNNSIRETWEGLEEESEDEGLGKLLKELSDARDALRTKLNEGNKPYTGYEEPKLKESVNVSEIKEDLEKLKSKLEEVKKYLKDSSKFEEIKGYISDSQ
notes: ElpQ, outer surface lipoprotein of the OspEF-related protein family, Borrelia burgdorferi strain B31, UniProt Q9S035, residues 19-343 (325 residues); also called Apo-ElpQ_(19-343)
On to B3, for which the binding result in experiment [5] is given as “binds”.

B4: ElpQ_(181-340) (domain or fragment)
chain: REEAEQQKRQQEEEEKRQVDNQIKTLIAKIDEINENIDVIKWQTTVGPQGVIDRITGPVYDDFTNGNNSIRETWEGLEEESEDEGLGKLLKELSDARDALRTKLNEGNKPYTGYEEPKLKESVNVSEIKEDLEKLKSKLEEVKKYLKDSSKFEEIKGYIS
notes: also called ElpQ truncation lacking residues 341 to 343
Take B4: the Kd in experiment [4] was 181 nM; in experiment [1], 55.6 nM; in experiment [2], 113 nM; in experiment [3], 20.8 nM. Also, the figures for the koff in experiment [2] and in experiment [3] were 0.00277 s⁻¹ and 0.00794 s⁻¹, respectively. Also, the figures for the kon in experiment [2] and in experiment [3] were 26400 M⁻¹ s⁻¹ and 425000 M⁻¹ s⁻¹, respectively.

B5: ElpQ_(Δ290-296) (domain or fragment, Borrelia burgdorferi strain B31, UniProt Q9S035 181-343, looked up)
chain: REEAEQQKRQQEEEEKRQVDNQIKTLIAKIDEINENIDVIKWQTTVGPQGVIDRITGPVYDDFTNGNNSIRETWEGLEEESEDEGLGKLLKELSDARDALRTKLNEGNKPKLKESVNVSEIKEDLEKLKSKLEEVKKYLKDSSKFEEIKGYISDSQ
notes: Synthetic E. coli codon-optimised gene fragment cloned BamHI/NotI into pT7HMT; also called Δ290 to 296
In the case of B5, the Kd in experiment [1] is about 665 nM. Moreover, in experiment [3], the Kd is about 623 nM, the koff amounted to 0.00746 s⁻¹ and the kon is 22500 M⁻¹ s⁻¹.
